What was measured:
[1] = system: Mouse hepatoma cell strain H22; assay: H22 subcutaneous tumor inhibition experiment; assay type: in vivo, Mice; conditions: 10 days
Procedure: Mice, weight 18-22g, males and females were divided equally, from Jilin University Laboratory Animal Center. Mouse hepatoma cell strain H22, offered by our laboratory. Cyclophosphamide (CTX), offered by Jiangsu Hengrui Medicine Co., Ltd., lot number: 06101921.
H22 hepatoma cells experiment group were divided into normal control group, negative control group, positive control group, rLZ-8 low-dose treatment group (0.25 mg·kg^−1), rLZ-8 medium-dose treatment group (0.5 mg·kg^−1), rLZ-8 high-dose treatment group (1 mg·kg^−1). For each group 10 mice.
H22 subcutaneous tumor tumor inhibition experiment methods: Select well-growing 1-122 cells, dilute appropriately with sterile saline into a tumor cell suspension, cell counts for 10^7·L^−1, under the right armpit of each mouse inoculated subcutaneously 0.2 ml (except for the normal control group). Treatment after 24 h of vaccination. Normal control group and negative control group were given saline 0.2 ml·each^−1·d^−1, intraperitoneal injection; positive control group were given cyclophosphamide 20 mg·kg^−1, 0.2 ml·each^−1·d^−1, intraperitoneal injection. rLZ-8 treatment groups were given doses of tail venous injection respectively, 0.2 ml·each^−1·d^−1, in 10 consecutive days. Draw blood from orbital venous plexus 10 days before and after medication respectively, sent to Jilin University No. 1 Hospital clinical laboratory to test and analyze the number of WBC. Kill all the mice the next day of drug withdrawal at cervical dislocation, dissected anatomically and took out the tumors, weigh tumors, calculated the inhibition rate using the following equation:
Inhibition rate (%)=(average tumore weight of the control group−average tumor weight of the experiment group)/average tumor weight of the control group×100%

[2] = system: spleen; assay: Colony forming unit-spleen and spleen index in radiation model of mice; assay type: in vivo
Procedure: rLZ-8 preparation of sterile saline. Divide them into 5 ∞g·kg^−1, 2.5 μg·kg^−1, 1.25 μg·kg^−1, 0.62 μg·kg^−1 dose groups. 0.2 ml/vial.
Genlei™ Scimax™ [Recombinant human granulocyte colony-stimulating factor injection (rhG-CSF)], production lot: 20060403; 150m/vial is prepared with sterile normal saline into the preparation of 3.2 μg·kg^−1, 0.2 ml/vial.
The mice were irradiated by 7.5 Gy γ-ray (180 mV, 15 mA) and then divided into seven groups (n=10): (A) negative control; (B) 5 μg·kg−1 dose; (C) 2.5 μg·kg−1 dose; (D) 1.25 μg·kg−1 dose; (E) 0.62 μg·kg−1 dose; (F) positive control (Genlei™ Scimax™); (G) model group. Together with modeling, mice in each group were administered with Genlei™ Scimax™ and rLZ-8 for 9 days, drew blood from tail, tested the number of WBC, weight spleen, calculated index of spleen.

[3] = system: K562; assay: PI single stained flow cytometry, apoptosis of K562; assay type: cell-based
Procedure: Fluorescence microscope, model Leica ASLMD, K562, NB4. rLZ-8 is classified into high, medium and low three-dose groups respectively, now we prepare them with IMDM culture medium containing 2% FCS into the preparation of 2.5 μg·ml^−1, 0.5 μg/ml, 0.1 μg·ml^−1. […] (PI) 50 μg·ml ^−1.
Establish K562 as the normal control group, rLZ-8 low-dose group (0.1 μg·ml^−1), rLZ-8 medium dose group (0.5 μg·ml^−1), rLZ-8 high-dose group, (2.5 μg·ml^−1); set NB4 as the normal control group, rLZ-8 low-dose group (0.1 μg·ml^−1), rLZ-8 medium dose group (0.5 μg·ml^−1), rLZ-8 high-dose group, (2.5 μg·ml^−1).
Mix K562 and NB4 cells into 24-orifice plate respectively, and supply rLZ-8 in different concentrates, 1 ml/orifice, set 3-orifice multipunches for each group. Put them in 37° C., 5% CO2 incubator for 24 h, collect the cells of each concentrate, PBS washes twice and regulates the cell density to 1×10^6/ml, 70% ice ethanol fixation, adjusts to −20° C. and stays overnight. Wash the cells with PBS twice after fixing the cells, add PI (end density 50 μg·ml^−1) for room temperature and lucifuged hatching 10 min, 1000 r·min^−1 centrifuge 5 min, clear supernatant with disposable 400μ. IPBS re-suspension precipitation. And test on computer in 1 h.

[4] = system: Human Promyelocytic Leukemia NB4 Cells; assay: Killing effect of rLZ-8 on NB4 cells (MTT, OD570nm); assay type: cell-based
Procedure: After filtration and degerming, we prepared 8 concentrations using IMDM culture medium which are respectively 0.78 μg·ml^−1, 1.56 μg·ml^−1, 3.125 μg·ml^−1, 6.25 μg·ml^−1, 12.5 μg·ml^−1, 25 μg·ml^−1, 50 μg·ml^−1, 100 μg·ml^−1.
On 96-orifice culture medium plate, the pilot orifice plus NB4 tumor cells 0.1 ml and rLZ-8 0.1 ml, rLZ-8 concentrates from low to high; negative control group plus NB4 tumor cells and culture medium of 0.1 ml respectively; positive drug control group arsenic trioxide As2O3; make six-aperture multipunches for each group. Placing in 37° C., 5% CO2 incubator 48 h, adding MTT15 μl (5 mg ml^−1) prior to the termination of 4 h, after the termination of cell culture by adding 100 μl 0.1 mol L^−1 hydrochloric acid isopropyl alcohol, testing on the enzyme-linked immunosorbent OD570nm values.

[5] = rLZ-8 0.25 mg·kg^−1 tail venous injection
[6] = rLZ-8 0.5 mg·kg^−1 tail venous injection
[7] = rLZ-8 1 mg·kg^−1 tail venous injection

B1: rLZ-8: Recombinant Ganoderma Lucidum Immune Regulatory Protein expressed in Pichia pastoris (protein, UniProt P14945 2-111, looked up)
Immunomodulatory protein Ling …: SDTALIFRLAWDVKKLSFDYTPNWGRGNPNNFIDTVTFPKVLTDKAYTYRVAVSGRNLGVKPSYAVESDGSQKVNFLEYNSGYGIADTNTIQVFVVDPDTNNDFIIAQWN
Inhibition rate (%) [1, 5]: 16.7% | Tumor weight [1, 5]: 1.00 ± 0.03 g | Inhibition rate (%) [1, 6]: 30.0% | Tumor weight [1, 6]: 0.84 ± 0.02 g | Inhibition rate (%) [1, 7]: 42.5% | Tumor weight [1, 7]: 0.69 ± 0.03 g | colony forming unit-spleen number ([2]; rLZ-8 0.62 μg·kg^−1): 8.9 ± 0.41 | growth rate ([2]; rLZ-8 0.62 μg·kg^−1): 50% | index (spleen) ([2]; rLZ-8 0.62 μg·kg^−1): 0.50 ± 0.10 | colony forming unit-spleen number ([2]; rLZ-8 1.25 μg·kg^−1): 6.3 ± 0.21 | growth rate ([2]; rLZ-8 1.25 μg·kg^−1): 30% | index (spleen) ([2]; rLZ-8 1.25 μg·kg^−1): 0.24 ± 0.13 | colony forming unit-spleen number ([2]; rLZ-8 2.50 μg·kg^−1): 14.3 ± 0.03 | growth rate ([2]; rLZ-8 2.50 μg·kg^−1): 69% | index (spleen) ([2]; rLZ-8 2.50 μg·kg^−1): 0.52 ± 0.12 | colony forming unit-spleen number ([2]; rLZ-8 5 μg·kg^−1): 9.7 ± 0.16 | growth rate ([2]; rLZ-8 5 μg·kg^−1): 54% | index (spleen) ([2]; rLZ-8 5 μg·kg^−1): 0.22 ± 0.09 | Apoptosis rate ([3]; K562, rLZ-8 0.1 μg·ml^−1, 24 h): 16.43% | Apoptosis rate ([3]; K562, rLZ-8 0.5 μg·ml^−1, 24 h): 17.91% | Apoptosis rate ([3]; K562, rLZ-8 2.5 μg·ml^−1, 24 h): 21.57% | lethal effect in vitro on NB4 tumor cells (in words) ([4]; 0.78-100 μg·ml^−1): strong lethal effect | Growth inhibition rate (%) ([4]; rLZ-8 0.78 μg ml^−1, 48 h): 39% | OD570 nm ([4]; rLZ-8 0.78 μg ml^−1, 48 h): 0.71 ± 0.03 | Growth inhibition rate (%) ([4]; rLZ-8 1.56 μg ml^−1, 48 h): 44% | OD570 nm ([4]; rLZ-8 1.56 μg ml^−1, 48 h): 0.65 ± 0.05 | Growth inhibition rate (%) ([4]; rLZ-8 3.125 μg ml^−1, 48 h): 54% | OD570 nm ([4]; rLZ-8 3.125 μg ml^−1, 48 h): 0.53 ± 0.04 | Growth inhibition rate (%) ([4]; rLZ-8 6.25 μg ml^−1, 48 h): 61% | OD570 nm ([4]; rLZ-8 6.25 μg ml^−1, 48 h): 0.45 ± 0.02 | Growth inhibition rate (%) ([4]; rLZ-8 12.5 μg ml^−1, 48 h): 74% | OD570 nm ([4]; rLZ-8 12.5 μg ml^−1, 48 h): 0.30 ± 0.04 | Growth inhibition rate (%) ([4]; rLZ-8 25 μg ml^−1, 48 h): 81% | OD570 nm ([4]; rLZ-8 25 μg ml^−1, 48 h): 0.22 ± 0.01 | Growth inhibition rate (%) ([4]; rLZ-8 50 μg ml^−1, 48 h): 91% | OD570 nm ([4]; rLZ-8 50 μg ml^−1, 48 h): 0.11 ± 0.01 | Growth inhibition rate (%) ([4]; rLZ-8 100 μg ml^−1, 48 h): 93% | OD570 nm ([4]; rLZ-8 100 μg ml^−1, 48 h): 0.08 ± 0.01
